Data from publication PMC11301259, “The crystal structure of methanogen McrD, a methyl‐coenzyme M reductase‐associated protein” (FEBS Open Bio, 2024).

Biological target: the molecule itself
Test: crystal structure; McrD at 22 mg/mL crystallised at 4 °C in 0.03 M MgCl2, 0.03 M CaCl2, 0.05 M MES, 0.05 M imidazole pH 6.5, 20% glycerol, 10% PEG 4000, 0.02 M carboxylic acids mix; space group C222(1), two molecules in the asymmetric unit; 1.65 Å; oligomerisation analysis with PISA

B1: Methanomassiliicoccus luminyensis strain B10 McrD (natural protein, UniProt A0AAT8XUI9 1-139, looked up)
chain: MSTDKFEPVPLPEILIFPNRLLSAETTEKLLNRVYDVPHVRQVNISGEGVPAMVGSGPGKGLPVEHEGRKVINVKGREIELQLLVGRVFVEIDDIDVVEKAIEAIDEICQELLPFGYNLEVGRYSKYRPTVTDYKKGKR
notes: McrD of Methanomassiliicoccus luminyensis strain B10, NCBI WP_019176772.1; 139 amino acids; cloned with primers from the start codon to the stop codon; in the crystal residues 1-129/130 are modelled, the C-terminal 10 (monomer A) or 9 (monomer B) residues are disordered; 18 (monomer A) and 9 (monomer B) residues of the plasmid-encoded N-terminal tag are seen in the electron density, so the tag …
- stoichiometry N: 2
